Laboratory results published in patent publication US20220289828A1.

B1: Fab EV68-228 (Fab, V domains shown)
VH: QVQLQESGPGLVKPSETLSLTCTVSGYLISNGYYWGWIRQSPGKGLEWIGSIYYTRDTYYNWSLKSRITISVDTSKKQFSLKLYSVTAADTAVYYCVRHEGSCNDGSCYGSFVDNWGQGTLVTVSS
VL: DIQMTQSPSSVSASVGDRVTLTCRASQDISSWLAWYQQKPGKAPKLLIYAASSLQSGVPSRFSGSGSGTHFTLTISSLQPEDFATYFCQQADSFITFGGGTKVEIK
B2: mAb EV68-159 (antibody, V domains shown)
VH: EVQLVESGGGLVKPGGSLRLSCAASGFTFSTYIMTWVRQAPGRGLEWVSSISTSSVYTFYADSLKGRFTISRDNAKNSVYLQMNSLRADDTAVYYCAREEGFRAYNLYWGQGTLVTVSS
VL: QSVLTQPPSASGTPGQRVTISCSGSSSNIEYNYVYWYQKFPGTAPKLLIYKNNQRPSGVPDRFSGSKSGTSASLAISGLRSEDEGDYYCAAWDDILSGVVFGGGTKLTVL
B3: Fab EV68-159 (Fab, V domains shown)
VH: B2 VH
VL: B2 VL

How the values were obtained:
[1] = biological target: Enterovirus D68 US/MO/14-18947 virus particle (B1 clade) (Enterovirus D68); assay: cryo-EM of Fab with B1 clade virus
[2] = biological target: Enterovirus D68 US/MO/14-18947 virus particle (B1 clade) (Enterovirus D68); assay: cryo-EM structure
[3] = biological target: B1 clade EV-D68 isolate (Enterovirus D68); assay: cell-based or functional assay

| Binder | copies of Fab bound to the virus particle [1] [copies] | share of the masked surface area from the heavy chain [2] [%] | viral surface area masked by each Fab [2] [Å^2] | IC50 in a CCID50 neutralization assay [3] [ng/mL] |
| --- | --- | --- | --- | --- |
| B1 | 60 | 84 | 1170 | – |
| B2 | – | – | – | 0.32 |
| B3 | 60 | 77 | 990 | – |
